# Results from patent US20260209348A1 (University of California, published 2026).
# Target: T1, human ROR2 (human, UniProt Q01974 34-403, limits assumed)
# Test: SPR
# T1 sequence (Q01974 34-403 limits assumed): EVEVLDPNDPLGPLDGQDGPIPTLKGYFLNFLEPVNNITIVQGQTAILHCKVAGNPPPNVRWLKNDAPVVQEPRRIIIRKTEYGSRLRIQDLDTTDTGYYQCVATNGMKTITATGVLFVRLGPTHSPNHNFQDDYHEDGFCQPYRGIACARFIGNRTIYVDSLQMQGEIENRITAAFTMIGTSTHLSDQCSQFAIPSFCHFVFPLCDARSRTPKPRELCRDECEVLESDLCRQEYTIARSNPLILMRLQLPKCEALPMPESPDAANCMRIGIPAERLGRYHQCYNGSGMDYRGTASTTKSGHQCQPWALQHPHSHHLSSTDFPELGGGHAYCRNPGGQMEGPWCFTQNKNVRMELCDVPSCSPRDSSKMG
row,Kd,Binder
1,0.52 nM,"grafted humanized 6E6: VH3-21*01 (extended) + VK1-12*01 (IMGT) (antibody, V domains shown, expressed as IgG) VH: EVQLVESGGGLVKPGGSLRLSCAASGFTFSNYGMSWVRQAPGKGLEWVSTISSGGGYTHYVDSVKGRFTISRDNAKNSLYLQMNSLRAEDTAVYYCARHPRDFSYAMDYWGQGTTVTVSS VL: DIQMTQSPSSVSASVGDRVTITCRASQDVGHYLAWYQQKPGKAPKLLIYWASSLQSGVPSRFSGSGSGTDFTLTISSLQPEDFATYYCQQYNIYPWTFGQGTKVEIK"
2,162 nM,"grafted humanized 6E6: VH3-11*03 (IMGT) + VK1-12*01 (extended) (antibody, V domains shown, expressed as IgG) VH: QVQLLESGGGLVKPGGSLRLSCAASGFTFSNYGMSWIRQAPGKGLEWVSYISSGGGYTNYADSVKGRFTISRDNAKNSLYLQMNSLRAEDTAVYYCARHPRDFSYAMDYWGQGTTVTVSS VL: DIQMTQSPSSVSASVGDRVTITCKASQDVGHYVAWYQQKPGKAPKLLIYWASTRHTGVPSRFSGSGSGTDFTLTISSLQPEDFATYYCQQYNIYPWTFGQGTKVEIK"
3,178 nM,"grafted humanized 6E6: VH3-11*03 (IMGT) + VK1-12*01 (IMGT) (antibody, V domains shown, expressed as IgG) VH: QVQLLESGGGLVKPGGSLRLSCAASGFTFSNYGMSWIRQAPGKGLEWVSYISSGGGYTNYADSVKGRFTISRDNAKNSLYLQMNSLRAEDTAVYYCARHPRDFSYAMDYWGQGTTVTVSS VL: DIQMTQSPSSVSASVGDRVTITCRASQDVGHYLAWYQQKPGKAPKLLIYWASSLQSGVPSRFSGSGSGTDFTLTISSLQPEDFATYYCQQYNIYPWTFGQGTKVEIK"

# Target: T1, human ROR2
# Test: SPR
# Remark: another data set of the same source
# Method in brief: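 Binding of humanized anti-human ROR2 monoclonal antibodies to human ROR2 was measured by surface plasmon resonance. Affinity is given as the dissociation constant (Kd), in nM. The antibodies were produced by grafting murine complementarity-determining regions into human acceptor frameworks and converting the constant region to human IgG1.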
row,Kd,Binder
1,2.2 nM,"h6E6-089 (antibody, V domains shown, also called clone 89) VH: EVQLVESGGGLVKPGGSLRLSCAASGFTFSDYGISWVRQAPGKGLEWVSTISSGGGYTHYVQSVKGRFTISRDNAKNSLYLQMNSLRAEDTAVYYCARHPRDFSYAMDYWGQGTTVTVSS VL: EIVMTQSPATLSVSPGERATLSCKASQDVGHYLAWYQQKPGQAPRLLIYWASTRATGIPARFSGSGSGTEFTLTISSLQSEDFAVYYCQQYNIYPWTFGQGTKVEIK"
2,0.073 nM,"h6E6-110 (antibody, V domains shown, also called clone 110) VH: EVQLVESGGGLVKPGGSLRLSCAASGFTFSHYGVSWVRQAPGKGLEWVSTISSGGGYTHYAESVKGRFTISRDNAKNSLYLQMNSLRAEDTAVYYCARHPRDFSYAQDYWGQGTTVTVSS VL: EIVMTQSPATLSVSPGERATLSCRASQDVGHYLAWYQQKPGQAPRLLIYWASTRATGIPARFSGSGSGTEFTLTISSLQSEDFAVYYCQQYNIYPWTFGQGTKVEIK"
3,0.286 nM,"h6E6-099 (antibody, V domains shown, also called clone 99) VH: EVQLVESGGGLVKPGGSLRLSCAASGFTFSNYGMNWVRQAPGKGLEWVSTISSGGGYTHYAPSVKGRFTISRDNAKNSLYLQMNSLRAEDTAVYYCARHPRDFSYAMDYWGQGTTVTVSS VL: EIVMTQSPATLSVSPGERATLSCKASQDVGHYVAWYQQKPGQAPRLLIYWASTRATGIPARFSGSGSGTEFTLTISSLQSEDFAVYYCQQYNIYPWTFGQGTKVEIK"
4,0.187 nM,"h6E6-115 (antibody, V domains shown, also called clone 115) VH: EVQLVESGGGLVKPGGSLRLSCAASGFTFSGYGMSWVRQAPGKGLEWVSTISSGGGYTHYVTSVKGRFTISRDNAKNSLYLQMNSLRAEDTAVYYCARHPRDFSYALDYWGQGTTVTVSS VL: EIVMTQSPATLSVSPGERATLSCRASQDVGHYLAWYQQKPGQAPRLLIYWASTRATGIPARFSGSGSGTEFTLTISSLQSEDFAVYYCQQYNIYPWTFGQGTKVEIK"
5,0.096 nM,"h6E6-097 (antibody, V domains shown, also called clone 97) VH: EVQLVESGGGLVKPGGSLRLSCAASGFTFSAYGMSWVRQAPGKGLEWVSTISSGGGYTHYVESVKGRFTISRDNAKNSLYLQMNSLRAEDTAVYYCARHPRDFSYAMDYWGQGTTVTVSS VL: EIVMTQSPATLSVSPGERATLSCKASQDVGHYVAWYQQKPGQAPRLLIYWASTRATGIPARFSGSGSGTEFTLTISSLQSEDFAVYYCQQYNIYPWTFGQGTKVEIK"
6,0.812 nM,"h6E6-082 (antibody, V domains shown, also called clone 82) VH: EVQLVESGGGLVKPGGSLRLSCAASGFTFSKYGMSWVRQAPGKGLEWVSTISSGGGYTHYADSVKGRFTISRDNAKNSLYLQMNSLRAEDTAVYYCARHPRDFSYAMDYWGQGTTVTVSS VL: EIVMTQSPATLSVSPGERATLSCKASQDVGHYLAWYQQKPGQAPRLLIYWASTRHTGIPARFSGSGSGTEFTLTISSLQSEDFAVYYCQQYNIYPWTFGQGTKVEIK"
7,0.178 nM,"h6E6-090 (antibody, V domains shown, also called clone 90) VH: EVQLVESGGGLVKPGGSLRLSCAASGFTFSTYGTSWVRQAPGKGLEWVSTISSGGGYTHYAPSVKGRFTISRDNAKNSLYLQMNSLRAEDTAVYYCARHPRDFSYALDYWGQGTTVTVSS VL: EIVMTQSPATLSVSPGERATLSCKASQDVGHYLAWYQQKPGQAPRLLIYWASTRHTGIPARFSGSGSGTEFTLTISSLQSEDFAVYYCQQYNIYPWTFGQGTKVEIK"
8,0.642 nM,"h6E6-106 (antibody, V domains shown, also called clone 106) VH: EVQLVESGGGLVKPGGSLRLSCAASGFTFSSYGISWVRQAPGKGLEWVSTISSGGGYTYYVDSVKGRFTISRDNAKNSLYLQMNSLRAEDTAVYYCARHPRDFSYALDYWGQGTTVTVSS VL: EIVMTQSPATLSVSPGERATLSCKASQDVGHYVAWYQQKPGQAPRLLIYWASTRATGIPARFSGSGSGTEFTLTISSLQSEDFAVYYCQQYNIYPWTFGQGTKVEIK"
9,0.108 nM,"h6E6-084 (antibody, V domains shown, also called clone 84) VH: EVQLVESGGGLVKPGGSLRLSCAASGFTFSQYGMSWVRQAPGKGLEWVSTISSGGGYTHYVQSVKGRFTISRDNAKNSLYLQMNSLRAEDTAVYYCARHPRDFSYAQDYWGQGTTVTVSS VL: EIVMTQSPATLSVSPGERATLSCKASQDVGHYLAWYQQKPGQAPRLLIYWASTRATGIPARFSGSGSGTEFTLTISSLQSEDFAVYYCQQYNIYPWTFGQGTKVEIK"
10,0.062 nM,"h6E6-081 (antibody, V domains shown, also called clone 81) VH: EVQLVESGGGLVKPGGSLRLSCAASGFTFSSYGMNWVRQAPGKGLEWVSTISSGGGYTHYADSVKGRFTISRDNAKNSLYLQMNSLRAEDTAVYYCARHPRDFSYAQDYWGQGTTVTVSS VL: EIVMTQSPATLSVSPGERATLSCRASQDVGHYVAWYQQKPGQAPRLLIYWASTRHTGIPARFSGSGSGTEFTLTISSLQSEDFAVYYCQQYNIYPWTFGQGTKVEIK"
11,0.151 nM,"h6E6-109 (antibody, V domains shown, also called clone 109) VH: EVQLVESGGGLVKPGGSLRLSCAASGFTFSNYGTSWVRQAPGKGLEWVSTISSGGGYTHYVTSVKGRFTISRDNAKNSLYLQMNSLRAEDTAVYYCARHPRDFSYAMDYWGQGTTVTVSS VL: EIVMTQSPATLSVSPGERATLSCKASQDVGHYVAWYQQKPGQAPRLLIYWASTRATGIPARFSGSGSGTEFTLTISSLQSEDFAVYYCQQYNIYPWTFGQGTKVEIK"
12,0.323 nM,"h6E6-117 (antibody, V domains shown, also called clone 117) VH: EVQLVESGGGLVKPGGSLRLSCAASGFTFSVYGISWVRQAPGKGLEWVSTISSGGGYTHYAPSVKGRFTISRDNAKNSLYLQMNSLRAEDTAVYYCARHPRDFSYAMDYWGQGTTVTVSS VL: EIVMTQSPATLSVSPGERATLSCKASQDVGHYVAWYQQKPGQAPRLLIYWASTRATGIPARFSGSGSGTEFTLTISSLQSEDFAVYYCQQYNIYPWTFGQGTKVEIK"
13,0.476 nM,"h6E6-078 (antibody, V domains shown, also called clone 78) VH: EVQLVESGGGLVKPGGSLRLSCAASGFTFSAYGSSWVRQAPGKGLEWVSTISSGGGYTHYAPSVKGRFTISRDNAKNSLYLQMNSLRAEDTAVYYCARHPRDFSYAMDYWGQGTTVTVSS VL: EIVMTQSPATLSVSPGERATLSCKASQDVGHYVAWYQQKPGQAPRLLIYWASTRATGIPARFSGSGSGTEFTLTISSLQSEDFAVYYCQQYNIYPWTFGQGTKVEIK"
